Reference: patent US20220002362A1

Target: OptoSTIM1 (CRY2 E281A) (Arabidopsis thaliana) (UniProt Q13586)
Test: cell-based or functional assay

activation half-maximal time (R-GECO1 level upon light stimulation): 62 s
inactivation half time (R-GECO1 level after light removal): 7 min
Substance: OptoSTIM1 (CRY2 E281A) (from UniProt Q13586 238-668)
